This passage reports EC50 results from US20250092135A1 (NANJING LEADS BIOLABS, published 2025).

In experiment [1] the target is T1, human MUC16 protein (ECT_TM huMuc16) on 293T cells (human).
T1 chain: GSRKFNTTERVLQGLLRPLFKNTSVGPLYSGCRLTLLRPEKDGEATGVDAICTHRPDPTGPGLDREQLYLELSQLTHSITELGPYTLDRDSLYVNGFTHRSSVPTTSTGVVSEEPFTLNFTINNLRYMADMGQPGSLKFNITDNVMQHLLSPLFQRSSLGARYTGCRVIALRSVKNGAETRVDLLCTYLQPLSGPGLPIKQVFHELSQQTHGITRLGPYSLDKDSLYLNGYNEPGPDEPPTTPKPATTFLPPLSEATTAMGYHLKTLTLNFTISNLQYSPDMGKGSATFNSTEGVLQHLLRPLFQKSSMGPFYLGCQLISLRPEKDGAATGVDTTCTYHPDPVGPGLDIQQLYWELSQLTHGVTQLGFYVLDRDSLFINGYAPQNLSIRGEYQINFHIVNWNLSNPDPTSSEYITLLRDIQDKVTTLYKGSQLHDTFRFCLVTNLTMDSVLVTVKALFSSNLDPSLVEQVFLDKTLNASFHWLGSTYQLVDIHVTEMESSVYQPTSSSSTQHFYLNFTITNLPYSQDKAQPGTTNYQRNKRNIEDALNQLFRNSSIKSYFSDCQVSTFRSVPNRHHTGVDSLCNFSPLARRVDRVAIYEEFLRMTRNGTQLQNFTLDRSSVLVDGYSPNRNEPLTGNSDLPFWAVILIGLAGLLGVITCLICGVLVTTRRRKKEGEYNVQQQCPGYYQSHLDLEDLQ
The experiment can be described thus: cell binding on 293T/hMUC16 cells, read as MFI (the legend calls it ELISA); EC50 table under the plot, unit from the axis Conc.(nM).

The target in experiment [2] is T2, human MUC16 protein endogenously expressed on cells (human, UniProt Q8WXI7 1-14507).
T2 construct: whole, on cells; also called MUC16 on OVCAR3 cells; MUC16 in ovarian carcinoma tissue
Nature of the experiment: flow cytometry, OVCAR3 cells (endogenous human MUC16), PE anti-human IgG Fc secondary, MFI; EC50 table under the plot, unit from the axis Conc.(nM). As for the experimental part: (1) Whether the anti-CD3/anti-MUC16 bispecific antibodies in the present invention could bind to the MUC16 protein endogenously expressed on human ovarian carcinoma cells (OVCAR3) (Cell Bank of Type Culture Collection Committee of the Chinese Academy of Sciences, Cat #TCHu228) was determined by cell binding experiments.
The experiments were performed using flow cytometry. OVCAR3 cells were digested, centrifuged and collected. The cells were resuspended in a PBS solution, and seeded into a 96-well plate (Corning, Cat #3799) at 1×10⁵ cells/well. The 96-well plate was centrifuged and then the supernatant was discarded. 100 μL of the serially diluted test bispecific antibody (at a maximum concentration of 200 nM, 5-fold dilution from 100 nM, 9 concentration points in total) was added to the OVCAR3 cells. The plate was incubated at 4° C. for 30 min and centrifuged (1000 rpm, 5 min), and then the supernatant was discarded. 100 μL of PBS solution was added to each well, and the cells were washed twice. 100 μL of fluorescent secondary antibody R-PE-conjugated AffiniPure Goat Anti-Human IgG, Fcγ Fragment Specific (Jackson ImmunoResearch, Cat #109-116-098) diluted in a ratio of 1:200 was then added. The cells were incubated at 4° C. for 30 min. After the cells were washed twice with the PBS solution, 100 μL of PBS solution was added to each well to resuspend the cells, and finally, fluorescence signals were detected using a BD Accuri C5 (BD Bioscience) flow cytometer according to the manufacturer's instructions. REGN4018 was used as a positive control.
Background: Flow cytometry measures light scatter and fluorescence of single cells or particles in a stream.

Experiment [3] concerns the target T3, rhesus monkey MUC16 protein (ECT_TM RhMuc16) on 293T cells (rhesus monkey).
T3 chain: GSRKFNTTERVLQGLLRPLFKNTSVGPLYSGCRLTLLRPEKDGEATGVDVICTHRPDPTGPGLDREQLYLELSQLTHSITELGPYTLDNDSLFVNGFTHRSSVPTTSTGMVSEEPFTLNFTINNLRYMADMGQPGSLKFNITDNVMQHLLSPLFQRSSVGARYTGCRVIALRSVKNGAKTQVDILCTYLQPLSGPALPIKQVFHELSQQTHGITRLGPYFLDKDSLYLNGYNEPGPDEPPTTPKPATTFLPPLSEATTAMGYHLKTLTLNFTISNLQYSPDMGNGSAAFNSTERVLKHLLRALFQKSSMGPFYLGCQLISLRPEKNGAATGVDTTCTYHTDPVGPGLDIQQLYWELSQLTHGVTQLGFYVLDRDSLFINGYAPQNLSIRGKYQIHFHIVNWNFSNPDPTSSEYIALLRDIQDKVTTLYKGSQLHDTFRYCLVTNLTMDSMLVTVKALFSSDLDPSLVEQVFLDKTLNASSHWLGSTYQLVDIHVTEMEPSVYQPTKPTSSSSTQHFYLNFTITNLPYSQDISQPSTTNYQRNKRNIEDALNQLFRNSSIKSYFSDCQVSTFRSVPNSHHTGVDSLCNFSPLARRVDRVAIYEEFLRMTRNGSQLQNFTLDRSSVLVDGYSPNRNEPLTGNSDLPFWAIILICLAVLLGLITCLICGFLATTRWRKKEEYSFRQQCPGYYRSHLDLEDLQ
Nature of the experiment: flow cytometry, 293T/rhesus MUC16 cells as printed on the sheet and in the legend (the example, paragraph 611, speaks of cynomolgus MUC16), PE anti-human IgG Fc secondary, MFI; EC50 table under the plot, unit from the axis Conc.(nM); curve still rising at the top concentration of 100 nM. As for the experimental part:
Referring to the flow cytometry described above, the serially diluted test bispecific antibody (at an initial concentration of 100 nM, 5-fold dilution, 9 points) was added to the cells, and the plate was incubated at 4° C. for 30 min. The cells were washed twice with PBS, and then fluorescent secondary antibody R-PE-conjugated AffiniPure Goat Anti-Human IgG, Fcγ Fragment Specific was added. The cells were incubated at 4° C. for 30 min. The cells were washed twice with PBS and then resuspended, and finally, fluorescence signals were detected using a BD Accuri C5 (BD Bioscience) flow cytometer.

The target of experiment [4] is T3, rhesus monkey MUC16 protein (ECT_TM …). Nature of the experiment: flow cytometry, 293T/rhesus MUC16 cells, PE anti-human IgG Fc secondary, MFI; EC50 table under the plot, unit from the axis Conc.(nM). As for the experimental part: The serially diluted anti-human MUC16 antibodies (at an initial concentration of 200 nM, 4-fold dilution, 8 points in total) obtained in the present application were added to the cells, and the cells were incubated at 4° C. for 30 min. The cells were washed twice with PBS, and then fluorescent secondary antibody R-PE-conjugated AffiniPure Goat Anti-Human IgG, Fcγ Fragment Specific (Jackson ImmunoResearch, Cat #109-116-098) was added. The cells were incubated at 4° C. for 30 min. The cells were washed twice with PBS and then resuspended, and finally, fluorescence signals were detected using a BD Accuri C5 (BD Bioscience) flow cytometer.

B1: humanized anti-MUC16 antibody Hu-L4H7 (antibody, human IgG1, kappa, L234A L235A, V domains shown)
VH: QVQLVQSGAEVKKPGASVKVSCKASGYTFTDYNIHWVRQAPGQGLEWMGYIYPYNGVSDYNQNFKSRVTMTTDTSTSTAYMELRSLRSDDTAVYYCARWDFGSGYYFDYWGQGTLVTVSS
VL: EIVLTQSPATLSLSPGERATLSCRASSSVIYMSWYQQKPGQAPRLLIYGTSTLASGIPARFSGSGSGTDFTLTISSLEPEDFAVYYCQQWSSNPFTFGQGTKLEIKR
notes: human IgG1 with L234A, L235A, D265A, P329A and kappa; Biotinylated in the CA125 ELISA; also called humanized MUC-16 antibody
Broadly, the EC50 is the concentration at which the effect is half-maximal. On to B1, for which the figures for the EC50 in experiment [1], in experiment [2] and in experiment [3] were 2.28 nM, 2.73 nM and 59.4 nM, respectively.

B2: anti-MUC16 antibody 776.1(C33S) (antibody, human IgG1, kappa, L234A L235A, V domains shown)
VH: EVQLQQSGPELVKPGASVKISCKASGYTFTDYNIHWVKQSHGKILEWIGYIYPYNGVSDYNQNFKSKATLIVDNSSNTAYMELRSLTSEDSAVYYCARWDFGSGYYFDYWGQGTTLTVSS
VL: QIVLSQSPAILFASPGETVTMTCRASSSVIYMSWNQQKPGSSPKPWIYGTSTLASGVPTRFSGSGSGTSYSLTISRVEAEDAATYYCQQWSSNPFTFGSGTKLEIKR
On to B2, for which the EC50 in experiment [4] amounted to 5.01 nM; in experiment [1] it was 6.67 nM.

B3: anti-CD3/MUC16 bispecific antibody MCH7-23L2-MCH7 (bispecific antibody, human IgG1, kappa, L234A L235A)
heavy 1: QVQLVQSGAEVKKPGASVKVSCKASGYTFTDYNIHWVRQAPGQGLEWMGYIYPYNGVSDYNQNFKSRVTMTTDTSTSTAYMELRSLRSDDTAVYYCARWDFGSGYYFDYWGQGTLVTVSSASTKGPSVFPLAPSSKSTSGGTAALGCLVKDYFPEPVTVSWNSGALTSGVHTFPAVLQSSGLYSLSSVVTVPSSSLGTQTYICNVNHKPSNTKVDKKVEPKSCEVQLVESGGGLVQPGGSLKLSCAASGFTFSTYAMNWVRQAPGKGLEWVGRIRSKYNNYATYYADSVKDRFTISRDDSKNTLYLQMNSLKTEDTAVYYCTRHGNFGNSYVSWFAYWGQGTTVTVSSGGGGSGGGGSGGGGSQAVVTQEPSLTVSPGGTVTLTCRSSTGAVTTSNYANWVQQKPGQAPRGLIGGTNKRAPGVPARFSGSLLGGKAALTLSGAQPEDEAEYFCALWYSNLWVFGGGTKLTVLGEPKSSDKTHTCPPCPAPEAAGGPSVFLFPPKPKDTLMISRTPEVTCVVVAVSHEDPEVKFNWYVDGVEVHNAKTKPREEQYNSTYRVVSVLTVLHQDWLNGKEYKCKVSNKALAAPIEKTISKAKGQPREPQVCTLPPSRDELTKNQVSLSCAVKGFYPSDIAVEWESNGQPENNYKTTPPVLDSDGSFFLVSKLTVDKSRWQQGNVFSCSVMHEALHNHYTQKSLSLSPGK
heavy 2: not shown
light: EIVLTQSPATLSLSPGERATLSCRASSSVIYMSWYQQKPGQAPRLLIYGTSTLASGIPARFSGSGSGTDFTLTISSLEPEDFAVYYCQQWSSNPFTFGQGTKLEIKRTVAAPSVFIFPPSDEQLKSGTASVVCLLNNFYPREAKVQWKVDNALQSGNSQESVTEQDSKDSTYSLSSTLTLSKADYEKHKVYACEVTHQGLSSPVTKSFNRGEC
notes: MCH7-23L2ScFv-Hole (VH-CH1-scFv-Fc) + MCH7-KIH-Knob + two light chains MCL4 LC
As for B3, the EC50 in experiment [2] amounted to 4.21 nM; in experiment [3], 52.2 nM.
